Paper PMC1636435 (Nucleic Acids Research, 2006)

B1: human RAD51 (Gal4 two-hybrid fusion) (natural protein)
chain: MAMQMQLEANADTSVEEESFGPQPISRLEQCGINANDVKKLEEAGFHTVEAVAYAPKKELINIKGISEAKADKILAEAAKLVPMGFTTATEFHQRRSEIIQITTGSKELDKLLQGGIETGSITEMFGEFRTGKTQICHTLAVTCQLPIDRGGGEGKAMYIDTEGTFRPERLLAVAERYGLSGSDVLDNVAYARAFNTDHQTQLLYQASAMMVESRYALLIVDSATALYRTDYSGRGELSARQMHLARFLRMLLRLADEFGVAVVITNQVVAQVDGAAMFAADPKKPIGGNIIAHASTTRLYLRKGRGETRICKIYDSPCLPEAEAMFAINADGVGDAKD
B2: human RAD51AP1 (Gal4 two-hybrid fusion, all of RAD51AP1) (natural protein)
chain: MVRPVRHKKPVNYSQFDHSDSDDDFVSATVPLNKKSRTAPKELKQDKPKPNLNNLRKEEIPVQEKTPKKRMALDDKLYQRDLEVALALSVKELPTVTTNVQNSQDKSIEKHGSSKIETMNKSPHISNCSVASDYLDLDKITVEDDVGGVQGKRKAASKAAAQQRKILLEGSDGDSANDTEPDFAPGEDSEDDSDFCESEDNDEDFSMRKSKVKEIKKKEVKVKSPVEKKEKKSKSKCNALVTSVDSAPAAVKSESQSLPKKVSLSSDTTRKPLEIRSPSAESKKPKWVPPAASGGSRSSSSPLVVVSVKSPNQSLRLGLSRLARVKPLHPNATST
B3: RAD51AP1-C89 (C-terminal 89 amino acids of human RAD51AP1) (domain or fragment)
chain: APAAVKSESQSLPKKVSLSSDTTRKPLEIRSPSAESKKPKWVPPAASGGSRSSSSPLVVVSVKSPNQSLRLGLSRLARVKPLHPNATST

Legend:
Test in all cases: two-hybrid
[1] = biological target: human RAD51 (Gal4 two-hybrid fusion) (human) (UniProt Q06609)
[2] = biological target: human DMC1 (Gal4 two-hybrid fusion) (human) (UniProt Q14565)
[3] = biological target: human RAD51AP1 (Gal4 two-hybrid fusion, all of RAD51AP1) (human) (UniProt Q96B01)
[4] = biological target: Saccharomyces cerevisiae RAD51 (Gal4 two-hybrid fusion) (Saccharomyces cerevisiae) (UniProt P25454)
[5] = biological target: RAD51AP2-C92 (last 92 amino acids of human RAD51AP2) (human) (UniProt Q09MP3)
[6] = biological target: Two larger fragments, each containing RAD54 79-118
[7] = biological target: RAD51AP2-C33 (C-terminal 33 amino acids of human RAD51AP2) (human) (UniProt Q09MP3)
[8] = biological target: T1, RAD51AP1-C25 (C-terminal 25 residues of human RAD51AP1) (human, UniProt Q96B01-2 311-335)
T1 chain: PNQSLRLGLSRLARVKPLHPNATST

[9] = biological target: B2
[10] = biological target: B3
[11] = biological target: B1

Chain of Saccharomyces cerevisiae RAD51 (Gal4 two-hybrid fusion) (Saccharomyces cerevisiae) (P25454 whole entry, the tested form may be a part): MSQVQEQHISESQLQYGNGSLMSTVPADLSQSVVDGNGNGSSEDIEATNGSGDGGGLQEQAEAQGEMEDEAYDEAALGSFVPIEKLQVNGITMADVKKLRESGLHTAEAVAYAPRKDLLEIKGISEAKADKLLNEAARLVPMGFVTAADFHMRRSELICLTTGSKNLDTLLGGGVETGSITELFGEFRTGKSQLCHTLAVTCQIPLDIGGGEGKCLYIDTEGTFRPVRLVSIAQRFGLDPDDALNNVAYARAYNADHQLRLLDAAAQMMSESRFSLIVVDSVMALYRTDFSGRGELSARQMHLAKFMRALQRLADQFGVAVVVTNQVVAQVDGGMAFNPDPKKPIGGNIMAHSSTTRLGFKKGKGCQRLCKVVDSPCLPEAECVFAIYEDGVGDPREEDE
Chain of human DMC1 (Gal4 two-hybrid fusion) (human) (Q14565 whole entry, the tested form may be a part): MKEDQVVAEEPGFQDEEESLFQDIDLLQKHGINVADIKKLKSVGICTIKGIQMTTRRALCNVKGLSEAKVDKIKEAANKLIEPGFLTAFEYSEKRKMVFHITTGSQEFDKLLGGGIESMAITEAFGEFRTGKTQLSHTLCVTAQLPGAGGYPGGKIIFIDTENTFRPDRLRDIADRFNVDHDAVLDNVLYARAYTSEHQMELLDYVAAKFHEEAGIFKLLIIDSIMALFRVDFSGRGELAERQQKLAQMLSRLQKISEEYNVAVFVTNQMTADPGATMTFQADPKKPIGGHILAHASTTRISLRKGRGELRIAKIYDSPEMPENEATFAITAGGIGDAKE
Chain of RAD51AP2-C33 (C-terminal 33 amino acids of human RAD51AP2) (human) (Q09MP3 whole entry): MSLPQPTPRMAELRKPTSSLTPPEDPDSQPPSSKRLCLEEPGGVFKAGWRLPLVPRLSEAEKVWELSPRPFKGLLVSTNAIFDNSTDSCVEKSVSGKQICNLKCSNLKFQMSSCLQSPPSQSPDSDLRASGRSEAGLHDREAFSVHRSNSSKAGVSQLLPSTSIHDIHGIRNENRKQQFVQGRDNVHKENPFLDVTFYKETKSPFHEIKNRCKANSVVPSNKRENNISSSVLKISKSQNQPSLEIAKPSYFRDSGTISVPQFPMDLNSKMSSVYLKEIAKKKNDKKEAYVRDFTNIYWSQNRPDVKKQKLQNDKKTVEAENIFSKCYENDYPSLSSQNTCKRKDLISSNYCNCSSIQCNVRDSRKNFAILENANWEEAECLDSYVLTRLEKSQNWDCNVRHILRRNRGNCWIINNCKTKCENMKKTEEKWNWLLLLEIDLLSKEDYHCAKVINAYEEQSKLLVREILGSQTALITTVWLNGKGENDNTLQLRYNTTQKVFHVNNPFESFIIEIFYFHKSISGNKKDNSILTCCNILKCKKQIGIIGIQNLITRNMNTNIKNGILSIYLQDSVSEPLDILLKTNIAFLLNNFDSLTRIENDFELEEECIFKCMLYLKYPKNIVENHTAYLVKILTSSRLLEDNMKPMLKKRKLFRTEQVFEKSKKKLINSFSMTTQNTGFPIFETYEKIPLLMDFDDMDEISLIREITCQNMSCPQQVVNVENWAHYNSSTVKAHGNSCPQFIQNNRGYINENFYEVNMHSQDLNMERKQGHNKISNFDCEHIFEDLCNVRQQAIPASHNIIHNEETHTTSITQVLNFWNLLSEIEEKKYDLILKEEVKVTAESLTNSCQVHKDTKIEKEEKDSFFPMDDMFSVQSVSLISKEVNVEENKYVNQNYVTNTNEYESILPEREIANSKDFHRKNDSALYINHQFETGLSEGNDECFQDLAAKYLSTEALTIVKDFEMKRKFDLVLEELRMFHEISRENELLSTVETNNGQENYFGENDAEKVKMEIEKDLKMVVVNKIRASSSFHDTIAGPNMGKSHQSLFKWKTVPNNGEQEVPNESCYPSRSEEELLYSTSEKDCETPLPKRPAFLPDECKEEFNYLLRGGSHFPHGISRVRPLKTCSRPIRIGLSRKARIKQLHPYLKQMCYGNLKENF
Chain of RAD51AP2-C92 (last 92 amino acids of human RAD51AP2) (human) (Q09MP3 1068-1159): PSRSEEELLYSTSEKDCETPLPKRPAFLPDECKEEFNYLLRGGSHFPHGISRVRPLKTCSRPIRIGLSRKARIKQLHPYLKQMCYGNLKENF

RAD51AP2-C92 (last 92 amino acids of human RAD51AP2) (from UniProt Q09MP3 1068-1159) (domain or fragment)
units of β-galactosidase (units of β-galactosidase) [1]: 143

RAD51AP2-C321 (C-terminal 321 amino acids of human RAD51AP2) (from UniProt Q09MP3 839-1159) (domain or fragment)
units of β-galactosidase (units of β-galactosidase) [2]: < 0.3
units of β-galactosidase (units of β-galactosidase) [1]: 301
units of β-galactosidase (units of β-galactosidase) [3]: < 0.3
units of β-galactosidase (units of β-galactosidase) [4]: < 0.3

human RAD51 (Gal4 two-hybrid fusion) (from UniProt Q06609 1-339) (natural protein)
units of β-galactosidase (units of β-galactosidase) [5]: 521
percent of the interaction of RAD54-N142 with RAD51 [6]: > 70%
units of β-galactosidase (units of β-galactosidase) [7]: 395

B1
units of β-galactosidase [8]: 473 units of β-galactosidase
units of β-galactosidase [9]: 590 units of β-galactosidase
units of β-galactosidase [10]: 420 units of β-galactosidase

B2
units of β-galactosidase [11]: 111 units of β-galactosidase

B3
units of β-galactosidase [11]: 24.6 units of β-galactosidase
